Source: patent US20190321401A1 (JUNO THERAPEUTICS, published 2019)

Tests used:
Assay in all cases: activation reporter or marker
[1] = biological target: T1, HPV 16 E7(11-19), single-substitution variant Y1N (synthetic scanning library) peptide on HLA-A*02:01 (human)
T1 peptide: NMLDLQPET

[2] = biological target: T2, HPV 16 E7(11-19), single-substitution variant Y1C (synthetic scanning library) peptide on HLA-A*02:01 (human)
T2 peptide: CMLDLQPET

[3] = biological target: T3, HPV 16 E7(11-19), single-substitution variant Y1H (synthetic scanning library) peptide on HLA-A*02:01 (human)
T3 peptide: HMLDLQPET

[4] = biological target: T4, HPV 16 E7(11-19), single-substitution variant Y1M (synthetic scanning library) peptide on HLA-A*02:01 (human)
T4 peptide: MMLDLQPET

[5] = biological target: T5, HPV 16 E7(11-19), single-substitution variant Y1F (synthetic scanning library) peptide on HLA-A*02:01 (human)
T5 peptide: FMLDLQPET

[6] = biological target: T6, HPV 16 E7(11-19), single-substitution variant Y1S (synthetic scanning library) peptide on HLA-A*02:01 (human)
T6 peptide: SMLDLQPET

[7] = biological target: T7, HPV 16 E7(11-19), single-substitution variant Y1W (synthetic scanning library) peptide on HLA-A*02:01 (human)
T7 peptide: WMLDLQPET

[8] = biological target: T8, HPV 16 E7(11-19), single-substitution variant Y1V (synthetic scanning library) peptide on HLA-A*02:01 (human)
T8 peptide: VMLDLQPET

[9] = biological target: T9, HPV 16 E7(11-19), single-substitution variant M2C (synthetic scanning library) peptide on HLA-A*02:01 (human)
T9 peptide: YCLDLQPET

[10] = biological target: T10, HPV 16 E7(11-19), single-substitution variant L3C (synthetic scanning library) peptide on HLA-A*02:01 (human)
T10 peptide: YMCDLQPET

[11] = biological target: T11, HPV 16 E7(11-19), single-substitution variant L3I (synthetic scanning library) peptide on HLA-A*02:01 (human)
T11 peptide: YMIDLQPET

[12] = biological target: T12, HPV 16 E7(11-19), single-substitution variant L3M (synthetic scanning library) peptide on HLA-A*02:01 (human)
T12 peptide: YMMDLQPET

[13] = biological target: T13, HPV 16 E7(11-19), single-substitution variant L5C (synthetic scanning library) peptide on HLA-A*02:01 (human)
T13 peptide: YMLDCQPET

[14] = biological target: T14, HPV 16 E7(11-19), single-substitution variant L5M (synthetic scanning library) peptide on HLA-A*02:01 (human)
T14 peptide: YMLDMQPET

[15] = biological target: T15, HPV 16 E7(11-19), single-substitution variant L5F (synthetic scanning library) peptide on HLA-A*02:01 (human)
T15 peptide: YMLDFQPET

[16] = biological target: T16, HPV 16 E7(11-19), single-substitution variant L5Y (synthetic scanning library) peptide on HLA-A*02:01 (human)
T16 peptide: YMLDYQPET

[17] = biological target: T17, HPV 16 E7(11-19), single-substitution variant Q6H (synthetic scanning library) peptide on HLA-A*02:01 (human)
T17 peptide: YMLDLHPET

[18] = biological target: T18, HPV 16 E7(11-19), single-substitution variant E8D (synthetic scanning library) peptide on HLA-A*02:01 (human)
T18 peptide: YMLDLQPDT

[19] = biological target: T19, HPV 16 E7(11-19), single-substitution variant E8C (synthetic scanning library) peptide on HLA-A*02:01 (human)
T19 peptide: YMLDLQPCT

[20] = biological target: T20, HPV 16 E7(11-19), single-substitution variant E8Q (synthetic scanning library) peptide on HLA-A*02:01 (human)
T20 peptide: YMLDLQPQT

[21] = biological target: T21, HPV 16 E7(11-19), single-substitution variant E8H (synthetic scanning library) peptide on HLA-A*02:01 (human)
T21 peptide: YMLDLQPHT

[22] = biological target: T22, HPV 16 E7(11-19), single-substitution variant E8P (synthetic scanning library) peptide on HLA-A*02:01 (human)
T22 peptide: YMLDLQPPT

[23] = biological target: T23, HPV 16 E7(11-19), single-substitution variant E8S (synthetic scanning library) peptide on HLA-A*02:01 (human)
T23 peptide: YMLDLQPST

[24] = biological target: T24, HPV 16 E7(11-19), single-substitution variant E8W (synthetic scanning library) peptide on HLA-A*02:01 (human)
T24 peptide: YMLDLQPWT

[25] = biological target: T25, HPV 16 E7(11-19), single-substitution variant T9D (synthetic scanning library) peptide on HLA-A*02:01 (human)
T25 peptide: YMLDLQPED

[26] = biological target: T26, HPV 16 E7(11-19), single-substitution variant T9C (synthetic scanning library) peptide on HLA-A*02:01 (human)
T26 peptide: YMLDLQPEC

[27] = biological target: T27, HPV 16 E7(11-19), single-substitution variant T9L (synthetic scanning library) peptide on HLA-A*02:01 (human)
T27 peptide: YMLDLQPEL

[28] = biological target: T28, HPV 16 E7(11-19), single-substitution variant T9M (synthetic scanning library) peptide on HLA-A*02:01 (human)
T28 peptide: YMLDLQPEM

[29] = biological target: T29, HPV 16 E7(11-19), single-substitution variant T9S (synthetic scanning library) peptide on HLA-A*02:01 (human)
T29 peptide: YMLDLQPES

[30] = biological target: T30, HPV 16 E7(11-19), single-substitution variant T9V (synthetic scanning library) peptide on HLA-A*02:01 (human)
T30 peptide: YMLDLQPEV

Measured: binding result

B1: TCR 57 (TCR, V domains shown)
Valpha: TQLLEQSPQFLSIQEGENLTVYCNSSSVFSSLQWYRQEPGEGPVLLVTVVTGGEVKKLKRLTFQFGDARKDSSLHITAAQPGDTGLYLCAGARNFNKFYFGSGTKLNVKP
Vbeta: GAVVSQHPSWVICKSGTSVKIECRSLDFQATTMFWYRQFPKQSLMLMATSNEGSKATYEQGVEKDKFLINHASLTLSTLTVTSAHPEDSSFYICSARSWRGGLEQFFGPGTRLTVL
recognises: all assays above
